The source of these data is patent US20160185837A1 (Medimmune Limited, priority 2013, published 2016).

Where two headings read alike, the source gives them in different places.

What all share (assay type): cell-based
Assay [1] has as its target T1, human GIP receptor (hGIPr) (Homo sapiens, UniProt P48546).
T1 construct: expressed in transfected cells
T1 sequence (P48546 22-466): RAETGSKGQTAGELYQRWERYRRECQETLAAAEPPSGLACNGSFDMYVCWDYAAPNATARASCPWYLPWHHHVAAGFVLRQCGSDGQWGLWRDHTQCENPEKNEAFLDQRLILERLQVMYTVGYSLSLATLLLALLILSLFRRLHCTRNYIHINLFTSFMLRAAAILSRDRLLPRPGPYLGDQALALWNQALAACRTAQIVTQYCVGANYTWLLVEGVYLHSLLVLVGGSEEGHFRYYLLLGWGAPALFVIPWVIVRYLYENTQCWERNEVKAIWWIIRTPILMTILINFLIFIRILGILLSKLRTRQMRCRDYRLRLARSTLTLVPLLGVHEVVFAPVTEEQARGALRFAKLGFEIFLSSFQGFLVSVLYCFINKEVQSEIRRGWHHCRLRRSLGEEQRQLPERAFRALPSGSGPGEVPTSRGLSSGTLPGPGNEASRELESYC
Kind of assay: BSA-cAMP assay, cells expressing human GIP receptor. The settings on record: BSA-cAMP assay, read-out: hGIPr cAMP activity EC50. The gist of the method:
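EC50 came from an unconstrained 4-parameter logistic fit of HTRF cAMP data expressed as percent of maximal native agonist activation, tested on two occasions. Thawed receptor-expressing cells (hGLP-1r, hGIPr at 0.5×10^5 cells/ml) treated 30 min at room temperature in 0.1% BSA-containing medium; two distinct hGIPr lines.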
On the technique in general: cAMP levels reflect the balance of adenylyl cyclase and phosphodiesterase activity.

For assay [2], the target named is T2, rat GLP-1 receptor (rGLP-1r) (Rattus norvegicus, UniProt P32301).
T2 construct: expressed in transfected cells; host or cells: HEK293s or CHO cells
T2 sequence (P32301 22-463): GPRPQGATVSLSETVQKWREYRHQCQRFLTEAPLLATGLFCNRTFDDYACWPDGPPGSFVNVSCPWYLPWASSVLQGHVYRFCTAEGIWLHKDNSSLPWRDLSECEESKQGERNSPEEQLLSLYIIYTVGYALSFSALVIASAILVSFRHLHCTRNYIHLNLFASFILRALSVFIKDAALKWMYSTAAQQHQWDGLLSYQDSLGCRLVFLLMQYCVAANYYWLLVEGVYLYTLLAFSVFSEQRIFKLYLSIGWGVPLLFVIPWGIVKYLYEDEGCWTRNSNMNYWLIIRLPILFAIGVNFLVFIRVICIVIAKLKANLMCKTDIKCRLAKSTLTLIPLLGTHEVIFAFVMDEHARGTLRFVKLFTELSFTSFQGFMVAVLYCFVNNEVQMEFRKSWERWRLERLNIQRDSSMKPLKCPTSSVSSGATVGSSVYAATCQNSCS
Kind of assay: BSA-cAMP assay, cells expressing rat GLP-1 receptor. The settings on record: BSA-cAMP assay, read-out: rGLP1r cAMP activity EC50. The gist of the method: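 EC50 is the midpoint of an unconstrained 4-parameter logistic fit to HTRF cAMP data, expressed as percent of maximal native agonist response, from two separate occasions. Rodent (mouse, rat) GLP-1R- or GIPR-expressing cells were incubated with compound 30 min at room temperature in 0.1% BSA medium, in duplicate.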

The target in another assay is T3, hGIPr (C3) (Homo sapiens, UniProt P48546).
T3 construct: expressed in transfected cells
T3 sequence (P48546 22-466): T1 sequence (P48546 22-466)
The assay is described as follows: BSA-cAMP assay, second human GIPr cell line hGIPr (C3). As to conditions: Batch 1, second hGIPr cell line, read-out: hGIPr (C3) cAMP activity EC50. As for the experimental part: For human GIPr, two different lines were used, shown as “hGIPr” and “hGIPr (C3)” in Table 11. Peptide activation of these various receptors results in downstream production of cAMP second messenger that can be measured in a functional activity assay.
One basic cAMP assays was performed, differing in the medium used for the assay, the “BSA-cAMP assay”:
BSA-based assay medium: 0.1% bovine serum albumin (BSA) in
Hanks Balanced Salt Solution (GIBCO or Sigma), containing 0.5 mM IBMX (Sigma #17018);
In certain aspects, the assay can also be carried out in medium supplemented with serum albumin that corresponds to the receptor being tested, e.g., human serum albumin for testing cAMP activity at hGIPr or hGLP-1r, rat serum albumin for testing cAMP activity at rGIPr or rGLP-1r, and so on. […]
cAMP levels were measured using a commercially available cAMP dynamic 2 HTRF kit (Cisbio, Cat #62AM4PEJ), following the two step protocol as per manufacturer's recommendations. […] Plates were incubated at room temperature for one hour and then read on an Envision (Perkin Elmer) using excitation wavelength of 320 nm and emission wavelengths of 620 nm & 665 nm. Data was transformed to % Delta F as described in manufacturer's guidelines and then transformed to percent activation of maximal native agonist response and analysed by 4-parameter logistic fit to determine EC50 values. […]

One may read the EC50 as the concentration needed to bring the measured effect to its halfway point. On to “IP320 (YSEGTFTSDYAAAAEAAAAAAFAAWLAAAAGGGGGSGGGGSGGGGSGGGGSACPPC)”, for which the results for the EC50 in assay [1] (Batch 1), in assay [1] (Batch 2) and in assay [2] (Batch 1) were 9.6 nM, 44 nM and 130 nM, respectively.
As for “IP396 (YSEGTFTSDYSKLLERQAIDEFIAWLLKGGGGGGGSGGGGSGGGGSGGGGSACPPC)”, the EC50 in assay [1] (Batch 1) was 0.0093 nM; in assay [2] (Batch 1), 0.057 nM; in assay [2] (Batch 2), 0.01 nM.
Regarding “IP412: Fc fusion, IgG1-TM, SEQ ID NO:387; agonist peptide YSEGTFTSDYSKLLEEEANRLFIEWLLAGG (YSEGTFTSDYSKLLEEEANRLFIEWLLAGGGGGGSGGGGSGGGGSGGGGSATHTCPPC)”, the EC50 with hGIPr (C3) was determined as 1.3 nM.
